B1: TPR t1 (parent)
chain: GACCAAUCUGCCCUCAGAGCUCGAGAACAUCUUCGGAUGCAGAGGAGGCAGGCUUCGGUGGCGCGAUAGCGCCAACGUCCUCAACCUCCAAUGCAUCCCACCACAUGAUGAUGCCUGAAGAGCCUUGGUUUUUUG

Variants of: B1
Assay: polymerase ribozyme fitness, log enrichment relative to wild type (log ratio); higher = more active; in vitro selection for triplet polymerase activity
Method in brief: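 A single round of triplicate in vitro selection, including frozen incubation at −7 °C, was applied to PCR-built, transcribed mutant libraries of each subunit of a heterodimeric triplet polymerase ribozyme. Illumina sequencing of input and output libraries retained genotypes with ≥10 input reads and ≥1 read per output. Fitness is the base-2 logarithm of genotype enrichment divided by wild-type enrichment, from inverse-variance-weighted replicate averages.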

Row | Variant | polymerase ribozyme fitness (log ratio)
1 | G52C U96C G110U | -1.98
2 | A5C G63U | -1.6
3 | U96C C114G | -2.45
4 | C22A A37U A43C C114A A118G | -6.5
5 | C56A U130C | -0.155
6 | G44C G58C U59C U96A | -1.98
7 | G47A G113C G122A | -4.01
8 | G10C G52U G60A C89A | -4.24
9 | C8G C73U | 0.902
10 | G39C G63C C104A | -3.07
11 | U7G G10U C15A U54A C104A | -3.26
12 | C12U G42A C97U | -3.11
13 | C20U A27G | -3.07
14 | G57U U129G | -1.65
15 | C22U G63U C82U C124G U126A | -3.87
16 | C13U G57C U78C | 0.238
17 | A5C G45U G93A A121U | -0.00844
18 | C62U G135A | -1.28
19 | C15G U112G G122A | -1.95
20 | C11U U32C C97G | -4.82
21 | C11U A41U G52U U125A | -3.07

Row | Variant | polymerase ribozyme fitness (log ratio)
22 | C97U C104U A111U C124A | -2.15
23 | C49U A50C G69A G135U | -3.24
24 | G10A C97A G120U | -4.42
25 | U9A A24U G71A G107A U125G | -7.09
26 | G42A G77U G120C | -1.93
27 | A27C G57A C123A | -4.55
28 | G42U G63A A111G U112G C115A | -6
29 | C8U G19C G44U C56A C89G | -2.64
30 | G36U G71A G120U | -1.04
31 | U14A A37G G120A | -0.881
32 | C70U C85G | -2.33
33 | C8G C13G G36A U78A A111C | 0.328
34 | A29G G77U | -1.38
35 | G69C U81C | -1.86
36 | C12G G39A G44A C102U | -4.47
37 | C34U C86U | -5.16
38 | C8U G48U G71U A74U C104A G117A C124U | -6.05
39 | A26G G44U G61A C99U G120U C124A | -3.22
40 | G17A C72G C124G | -0.994
41 | G60C C86A C97G U116C | -4.3
42 | C15G C73G C88U U116G | -3.52

Row | Variant | polymerase ribozyme fitness (log ratio)
43 | A29G C123U | -0.36
44 | G71A C72A | -1.46
45 | C85U A91C | -2.1
46 | C3U A91U C115U | -1.86
47 | C4U G52U C73A | -0.845
48 | C12U C64U C72A U87C | -0.223
49 | A2G C89A | -2.01
50 | C49U G51U U78G C79G U109G C124G | -6.06
51 | G47A A50U C73U C124U U132A | -0.0565
52 | U9G U32C U59A U131A | -0.0228
53 | C8U C85A A91U | -1.64
54 | C13U U33A U125A | -4.68
55 | U9G G63A U92G C98G C115G G128A | -6.12
56 | C12U C15A A43C C72U A108U C123G | -6.32
57 | G60U G63U C99U C101G C115G G122U C124G | -6.39
58 | C28U G71U A83U C86G C123G | -2.39
59 | U33C | -3.31
60 | G51U U54G C62A G113U | -7.8
61 | C22G A46G G60A G120A | -4.49
62 | G39C A91C | -1.16
63 | C89U G135U | -0.983

Row | Variant | polymerase ribozyme fitness (log ratio)
64 | C72G C115U | -1.03
65 | U116G A121C | -0.876
66 | G10C C49G G61A U112A A118U | 1.17
67 | A46G G48A | -0.934
68 | G19A G69U G127C | -2.66
69 | C12U C13G A37U U54G C80A | -4.65
70 | G10A C34U G77A | -5.24
71 | G117A C123G | -1.9
72 | U14A U30A A66U G69U U92G C94A G117C | -6.34
73 | A6C C62G G113A | -3.34
74 | C15G C40U G61A C89U A91C C123G | -0.621
75 | C64U C85A U96G U125A | -2.82
76 | U21C G36U C64U | -0.911
77 | C8A C40U A90C | -0.703
78 | A41U G120C | -0.366
79 | G113U G128A | -3.35
80 | A90U G110A | -4.07
81 | A5U C12U C49U C94U | -2.22
82 | C72A U96A A108G G122U U129C | -3.93
83 | G52A G77U G93A G122U | -2.45

Reference: the RNAGym collection of RNA variant scans (doi:10.1073/pnas.2313332121)
